Reference: a protein production outcome set (Wang et al. 2014)

assay: label from the status in PepcDB records

Protein production, failed:
MQDNNARFPTIAKVLILRQFLWGAAFYGAFVLLTKFFLDDLNYSEADTIMMMGAFGAVGPVFSAVGGFLADKFIGAFRAVYIGYATYLAGFLLLGIGASQLNVPMSILAIALIGFARGLSATCPTVLFGNSYSETNREAFQQGLTVNYSINNLGSFSAKYLFPFLIAYLAYQGVFFVSAILMALNLLMFYKFRKELVSVGNDLDKTPLPLKTWVMFFAGSAAMLGLIFWIFSNLETGKYILYTLGFGAIGYFIYEITQATRAYQYKMVAVLITVCILIVFYFFYGQMFTSMNMYAINLMDDTLLGFIPIHPESNMAFNPLWCFVLGGPMIQLYAWLDRKGYSPTIPTKIAGAFMLSTIAFGLLGLSAGSIGENGKISADWILLVHFFQSGAELIVGALGAGFIFEMVPRYLAAFSIGLRAVAISLSGILAAVIATKIALPKDIVFTPEVVETVYTSYFYMLAQVAAFMAILTLGLSKVIQKLIARGEALEAEEKVDTTMRSNIG, MQDTLPSRREIAPDSTRPPPTHDDVRAQLNRIITSPQFPHIGRSAAFLTYAVEETLAGRADRIKGYSIAVEVFKRSNGFTQDDPVVRIEAGRLRRVLERYYFTAGQHDPIRIDIPKGGYVPTFAWTSPSEDNSDAEDQSLPPEHASSLFPGLRRHIWTVVLGLIVIVGGASALAGLTSIRFSSIWPFATADITESDGPTLVIAPFANLGDGPQAELYTTGLTEELLTALPRFKEIKVFGRETSRSLPPEVETSRIRGELGARFLLAGGVRVSGSRVRVTARLLDTQTDEILWSQTYDDDIGVRDLFTIQSDVANKVATAVAQPYGIMAQADVSNPPPDDLGSYGCTLSFYAYRAELSIERHGEVRNCLESAVARYPSFATAWAMLSIIYLDEDRFRFNRKPISSTPIDRSFQAARRAVQLDPGNTRALQALMTTLFFSQRVSEALQIGERALATNPNDTELLAEFGTRLAMSGEWQRGAALLDRAIALNPAGGGYYRGTRALAAYMLHDDKTAVIEIRQADLQKFPLFHAVAAVIYVDAGMIDDARSEAARFNEMRPDFIPNIVAELKVRNFQPQDRARMIADLRTAGLLVRDEVQATMSLPIDDSKALQPR

Protein production, not failed:
MQDGFLTVSIIDATNNRPIQNAVVNIYSMSNGSQSSSTLYQNLRSNESGQVTGLVLPAPDVDYSLQPSDVRPYSQYIVEAIADGYETVVIEGTQLLATIEARQGVPMSPRTRSKRSFSRQSELIFDIGEHTLYGTYPPKIPESNLKPLPPPTGFVVLDNPVVPEFIVVHDGLPEDSSAPNYWIPFKEYIKNIASSEIYSTWPEQTIYANVIAIISFTLNRVFTEWYRNKGYNFTITSTTAYDHKFINNRNLFEPINVVVDAIFNTFIKRPPTSRQPLLAQYCDGQKSQCPDQMTQWGSKDLGDQGYDYESILRYFYGDEIVFERAPIVSGVPVSFPGTTLQVGSSGQYVRTIQNQLNAISNSYPAVPKVIEDGIYGTDTENAVKIFQGIFGLPQSGVVDFKTWYEISRVYVATTRIASLNPLILEHHHHHH, MQDKNFDKLAQKFAKNIYGTPKGEIRAAVLWRDLAPALAQFGDKKLRILDAGGGFGYFSQKLARLGHEVVLCDISAEMLAQAKEQIDASDTPLAIRLVHAPIQALSITEHGMFDLILCHAVVEWLADAKTTMEGLLTMLKPNGLFSLMFYNKEAMRFHALVSGNFDYVAADLKVKKKVRLTPTHPLYIHEVKLWFAQWQMALLKESGVRVIHDYLKKQQAADFDYQKLLSMELEYSQREPYISLGRYVHFLGQSTATHSELEHHHHHH, MQDSLGIMIKKANNALARDSDHYAKSLGLTGMQISTINFIANNEQHHDLFQRDLELEFNIRKATCSSLVSKMEAADLLIRVPAKDDGRYKRLLLTPKARQLATKIERFFETSEQRMATILGVNTAETYEALRQIAVAFSTPTHAPENWYLEHHHHHH, MQDSRPHPHDWNVSTDEAKRIQRRLASEVTERALPDGGETVAGIDVSVRDDTAQAAVSVLRLPELDVVDEATHRCEVPFPYVPGLLSFREMPAVLPALERLHSTPDVFVTDSHGAAHPRRFGLACHLGVLLDAPAIGVAKSILVGAPQGELGPEKGSRVPLVDDGETVGTVLRTRTDVNPVYVSVGHRCTLDGAADLMLDCSPRYKIPEPTRQAHKLSRAEGLEHHHHHH
